Assay results as given in paper PMC2566858 (Nucleic Acids Research, 2008).
Changes are numbered by the printed parent chain.

T1: rGyr_hel (reverse gyrase helicase-like domain) (Thermotoga maritima, UniProt O51934 59-541)
T1 sequence: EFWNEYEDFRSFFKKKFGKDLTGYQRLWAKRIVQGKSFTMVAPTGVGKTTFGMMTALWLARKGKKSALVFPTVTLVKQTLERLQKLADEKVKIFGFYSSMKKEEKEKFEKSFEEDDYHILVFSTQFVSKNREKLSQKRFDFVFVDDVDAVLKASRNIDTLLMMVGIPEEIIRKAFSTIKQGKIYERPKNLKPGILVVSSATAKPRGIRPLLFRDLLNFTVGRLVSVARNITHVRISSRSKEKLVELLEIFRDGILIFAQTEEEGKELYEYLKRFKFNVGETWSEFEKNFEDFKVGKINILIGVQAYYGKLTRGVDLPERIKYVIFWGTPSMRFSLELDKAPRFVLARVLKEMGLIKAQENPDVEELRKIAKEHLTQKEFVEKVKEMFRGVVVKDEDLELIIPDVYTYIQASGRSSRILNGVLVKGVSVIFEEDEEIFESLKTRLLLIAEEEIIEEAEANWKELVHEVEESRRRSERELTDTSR

T2: rGyr_fl Y851F (full-length reverse gyrase) (Thermotoga maritima, UniProt O51934 1-1104, Y851F)
T2 sequence: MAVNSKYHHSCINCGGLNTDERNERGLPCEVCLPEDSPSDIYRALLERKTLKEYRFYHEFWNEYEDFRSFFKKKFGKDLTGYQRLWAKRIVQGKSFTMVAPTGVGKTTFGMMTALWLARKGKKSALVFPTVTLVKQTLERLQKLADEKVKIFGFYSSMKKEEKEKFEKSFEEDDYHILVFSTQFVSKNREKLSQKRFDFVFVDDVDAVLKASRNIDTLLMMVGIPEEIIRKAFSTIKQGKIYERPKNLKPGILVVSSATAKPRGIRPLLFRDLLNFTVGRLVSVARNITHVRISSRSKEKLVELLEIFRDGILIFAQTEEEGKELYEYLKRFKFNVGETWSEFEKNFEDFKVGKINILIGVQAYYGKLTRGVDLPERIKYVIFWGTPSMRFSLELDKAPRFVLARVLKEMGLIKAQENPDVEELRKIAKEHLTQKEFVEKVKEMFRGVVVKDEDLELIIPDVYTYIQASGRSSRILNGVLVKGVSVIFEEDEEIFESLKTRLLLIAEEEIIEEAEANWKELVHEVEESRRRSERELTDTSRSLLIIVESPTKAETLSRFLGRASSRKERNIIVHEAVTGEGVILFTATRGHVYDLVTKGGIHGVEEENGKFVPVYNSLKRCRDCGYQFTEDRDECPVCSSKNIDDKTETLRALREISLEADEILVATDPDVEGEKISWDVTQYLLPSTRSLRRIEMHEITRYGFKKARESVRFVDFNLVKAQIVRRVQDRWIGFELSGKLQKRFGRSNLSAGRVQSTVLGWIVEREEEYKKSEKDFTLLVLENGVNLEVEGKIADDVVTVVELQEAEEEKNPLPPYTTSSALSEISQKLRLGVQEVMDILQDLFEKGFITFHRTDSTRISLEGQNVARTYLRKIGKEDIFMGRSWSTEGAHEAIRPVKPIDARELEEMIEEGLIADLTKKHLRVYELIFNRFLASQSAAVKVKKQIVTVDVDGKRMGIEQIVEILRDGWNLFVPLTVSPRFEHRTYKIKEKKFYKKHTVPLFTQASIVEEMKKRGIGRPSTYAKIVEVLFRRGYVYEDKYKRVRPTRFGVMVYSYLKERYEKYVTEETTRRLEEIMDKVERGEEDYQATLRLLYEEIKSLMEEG

T3: rGyr_fl K106Q/Y851F (Thermotoga maritima, UniProt O51934 1-1104, K106Q;Y851F)
T3 sequence: T2 sequence with K106Q

B1: 60-base ssDNA (ssDNA)
DNA: AAGCCAAGCTTCTAGAGTCAGCCCGTGATATTCATTACTTCTTATCCTAGGATCCCCGTT
B2: 60 bp dsDNA (dsDNA)
DNA 1: B1 DNA
DNA 2: AACGGGGATCCTAGGATAAGAAGTAATGAATATCACGGGCTGACTCTAGAAGCTTGGCTT

Key:
Assay in all cases: fluorescence anisotropy
[1] = target: T1, rGyr_hel (reverse gyrase helicase-like …)
[2] = target: T2, rGyr_fl Y851F (full-length reverse …)
[3] = target: T3, rGyr_fl K106Q/Y851F

Row | Binder | Kd [1] | Kd [2] | Kd [3]
1 | B1 | 330 ± 10 nM | 41 ± 1 nM | 
2 | B2 |  |  | 460 ± 70 nM
